Measured values published in US20250051406, “CELL TARGETING COMPOSITIONS AND METHODS” (The Trustees of Indiana University, published 2025).

Target: ZFP K-Ras G12D (six-finger zinc finger protein) (synthetic construct)
Assay: dot blot, 400 ng gDNA of PANC-1 (heterozygous G12D), ZFP 10 ug/ml, TBS-T/milk, RT; much stronger than WT or G13D gDNA
Settings: tags: N-terminal 3xFLAG, NLS; expressed in E. coli from pET-30a(+)
Procedure: Genomic DNA (gDNA) was extracted from cancer cells using QIAamp DNA Mini Kit (51104, Qiagen Sciences, Inc., Germantown, MD). Concentration of the gDNA was measured by Qubit dsDNA BR Assay kit (Q32853, Invitrogen™, Thermo Fisher Scientific Inc., Waltham, MA) and adjusted to the same contraction. 400 ng of each gDNA was spotted onto a nitrocellulose membrane (15356, Sigma-Aldrich, Burlington, MA) using narrow-mouth pipette tip. Membranes were allowed to dry and then blocked by soaking in 5% non-fat milk in tris-buffered saline tween (TBS-T) at room temperature (RT) for 1 hour. Blocked membranes were incubated with ZFP ([…]) dissolved in milk/TBS-T for 1 hour at RT. The membranes were washed three times with TBS-T and incubated with anti-FLAG@antibody conjugated with horseradish peroxidase (HRP) (86861S, Cell Signaling Technology, Inc., Danvers, MA). The membranes were then washed three times with TBS-T (15 min×1, 5 min×2) and once with TBS (5 min). The signals were developed with enhanced chemiluminescent (ECL) horseradish peroxidase (HRP) substrate (SuperSignal West Pico PLUS Chemiluminescent Substrate, Catalog #34580, Thermo Fisher Scientific) and captured using the ChemiDoc MP Imaging System (12003154, Bio-Rad Laboratories, Hercules, CA).
FIG. 4 depicts dot blot results showing that the ZFPs from Example 3 can distinguish DNA sequences with one or two point mutations in vitro. […]

Sequence of ZFP K-Ras G12D (six-finger zinc finger protein) (synthetic construct) (chain, as listed by the source G12D G12D): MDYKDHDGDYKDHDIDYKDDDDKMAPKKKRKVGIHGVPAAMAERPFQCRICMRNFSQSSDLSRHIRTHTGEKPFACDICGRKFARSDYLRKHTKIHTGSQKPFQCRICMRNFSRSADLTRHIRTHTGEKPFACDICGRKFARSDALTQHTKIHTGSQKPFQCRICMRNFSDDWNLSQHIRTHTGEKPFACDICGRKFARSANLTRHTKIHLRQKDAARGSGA

B1: KRAS G12D target site (codon 12 GAT) (dsDNA)
DNA 1: GAGCTGATGGCGTAGGCA
DNA 2: TGCCTACGCCATCAGCTC
- binding result: binds
